Values quoted from earlier work as cited in PMC7092810.

Biological target: Cyclophilin A (Homo sapiens) (UniProt P62937)
Sequence (P62937 whole entry): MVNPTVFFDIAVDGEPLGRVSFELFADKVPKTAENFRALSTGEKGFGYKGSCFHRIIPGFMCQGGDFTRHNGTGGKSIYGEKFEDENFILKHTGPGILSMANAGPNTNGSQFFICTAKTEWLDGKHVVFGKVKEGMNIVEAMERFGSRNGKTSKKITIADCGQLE

Sequence of HIV-1 capsid protein CA (O93182 133-363): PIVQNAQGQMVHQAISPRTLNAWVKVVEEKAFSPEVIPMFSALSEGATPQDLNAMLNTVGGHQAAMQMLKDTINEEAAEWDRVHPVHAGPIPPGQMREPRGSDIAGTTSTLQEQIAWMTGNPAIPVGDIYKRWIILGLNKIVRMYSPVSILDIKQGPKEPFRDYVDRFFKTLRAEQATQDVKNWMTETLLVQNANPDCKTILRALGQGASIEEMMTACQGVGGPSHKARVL

With “HIV-1 capsid protein CA (from UniProt O93182)” as the substance, how does the Kd read?
The Kd was 16 µM.
